Experimental data from patent US20260258115A1.
Where a chain is given by its changes, count along the chain named.

B1: ADI-36671 (antibody, V domains shown)
VH: EVQLLESGGGLVKPGGSLRLSCAASGFTFSGYYMTWIRQAPEKGLEWVSYISGGSTYTNYADSVRGRFTISRDNARNSLYLQMNSLRAEDTAVYYCARDGGYGIGPLYWGQGSLVTVSS
VL: QPVLTQPPSVSGAPGQRVTISCTGSSSNIGAPFDVHWYQQLPGTAPKPLIYGNSNRPSGVPDRFSGSKSGTSASLAITGLQAEDEADYYCQSYDSSLGGYVFGTGTKLTVL
B2: ADI-41257 (antibody, V domains shown)
VH: QVQLVESGAEVKKPGSSVKVSCKASEGTFSSYGISWVRQAPGQGPEWMGEINPMFGTAKYAQKFQGRVTITVDESTSTADMELSSLTSEDTAVYYCAREFLGQCSETNCPTPSRHLDYWGQGTLVTVSS
VL: EIVMTQSPSSLSASVGDRVTITCRASRTISSYLNWYQQKPGKAPKLLIYATSNLQSGVPSRFSGSGSGADFTLTISSLQPEDFATYYCQQTYSTPGFGPGTKVDIK
B3: ADI-41294 (antibody, V domains shown)
VH: EVQLLESGGGLVQPGGSLRLSCAASGFTFSAYEMNWVRQAPGKGLEWVSYISSSGSNKHYADSVKGRFTISRDNAKNSLHLHMNSLRAEDTALYYCTRPHQEEWELLPNDAFDLWGQGTMVTVSS
VL: QSALTQPPSASGSPGQSVTISCTGTSTDVGAYTYVSWYQQHPGKAPKLIIYEVYKRPSGVPNRFFGSKSGNTASLTVSGLQAEDEADYYCSSYGGSNNFGLFGGGTKLIVL
B4: ADI-41258 (antibody, V domains shown)
VH: QVQLVQSGGGLVQRGGSLRLSCAASGFSFRSYAMSWVRQAPGKGLEWVSSISDSGDNTFYADSVKGRFSISRDNSRDTLYLQMNSLRAEDTAVYYCARGGYCSGGNCFPFDYWGQGTLVTVSS
VL: SYELMQLPSVSVSPGQTARITCSGDALPKQYGYWYQQKPGQAPVLVIYKDSERPSGIPERFSGSSSGTTVTLTISGVQAEDEADYYCQSADSGGTYVMFGGGTKLTVL
B5: ADI-41288 (antibody, V domains shown)
VH: EVQLVESGGGLVQPGGSLRLSCAASGFTFSSYAMSWVRQAAGKGLEWVSAISGSGDDTFYADSVKDRFIISRDSSKRKVYLQMNSLRVEDTAVYYCAKTDIMVTFGGVVVDAYYFDHWGQGTLVTVSS
VL: ETTLTQSPGTLSLSPGERATLSCRASQFVFRSYLAWYQQRPGQPPRLLIYGASSRATGIPDRFSGRGSGTEFTLTISRLEPEDFAMYYCQHYDSSPPGTFGGGTKVEIK
B6: ADI-41349 (antibody, V domains shown)
VH: EVQLLESGGGLVQPGRSLRLSCTGSGFTFGDYAMNWVRQAPGKGLEWVGLIRSKDYGGTTEFAASLKGRLTISRDDSKSIAYLQMHSLKTEDSAVYYCTRAHLTDYTDINGYQYYFDYWGQGSPVTVSS
VL: DIQMTQSPSSLSASVGDRVTITCQASQDISNFLNWYQQRPGKAPKLLIHDASNLETGVPSRFSGSGSRTEFTFTISSLQPEDIGTYYCQHYDNFPYTFGQGTKVEIK
B7: ADI-41317 (antibody, V domains shown)
VH: EVQLVESGGGLVQPGGSLRLSCEASRFKFSTFWMAWVRQAPGKGLEWVANIKQDGSETYYLDSVKGRFTISRDNAKNSLFLQMKSLRAEDTAVYYCAGLWWGDLENWFDPWGQGTLVTVSS
VL: QSVLTQPPSVSGAPGQRVTISCTGSSSNLGTGFDVHWYRQLPGTAPQLLIYGSTNRPSGVPDRFSGSKYGTSASLAITGLQAEDEADYYCQSYDSNLRAYVFGTVTKVTVL
B8: ADI-41343 (antibody, V domains shown)
VH: EVQLVESGGGLVKPGGSLRLSCAASGFTFSSYYMNWVRQAPGKGLEWVSSISGGSSYISYADSVKGRFTISRDNAKNSLYLQMNSLRAEDTAVYYCARVDTPMVRGYYFDYWGQGTLVTVSS
VL: QSVLTQPPSVSGAPGRRVTISCTGSSSNIGAGYDVHWYQQLPGTAPKLLIFANSNRPSGVPDRFSGSKSGTSASLAITGLQAEDEADYYCQSYDSSLSGSVFGGGTKVTVL
B9: ADI-41296 (antibody, V domains shown)
VH: EVQLVESGVEVKKPGESLKISCRGSGYTFYNYWIAWVRQKPGKGLEYMGTIYLDDSETIYSPSFQGEVTISADKSINTAYLQWNSLKASDTANYYCARQMDFYFDVWGRGTLVTVSS
VL: SYELMQPPSVSVSPGQTARITCSGDPLPRESAYWYQQKPGQAPVVIIFNDIERPLGIPERFSGSRSGTTVTLTISGAQAEDEADYYCQSADSRKTFVFGTGTKLTVL
B10: ADI-41310 (antibody, V domains shown)
VH: B9 VH with E1Q, E6Q, T28S, E57D
VL: B9 VL with M5T, I46V, E59G, T68A, V70A, S75N, T100A
B11: ADI-41320 (antibody, V domains shown)
VH: B9 VH with E1Q, E6Q, S25F, T28S, F29A, E57D, K74R
VL: B9 VL with S1Q, Y2S, E3V, M5T, I46V, E59A, T100P
B12: ADI-41340 (antibody, V domains shown)
VH: QVQLVQSGAEVKTPGSSVKVSCKASGGTFRSYPITWVRQAPGQGLEWMGTVIPVFDTVNYAPKFQGRVSITADESTNTAYMELSSLRSDDSAVYYCARDLGWLRPMTTVTSPHFDYWGQGTLVTVSS
VL: QSVLTQPASVSGSPGQSITISCTGTSSDVGGYDFVSWYQQHPGKAPKLMISEVTDRPSGVSNRFSGSKSGNTASLTISGLQAEDEADYYCTSYTSSRTYVFGTGTKLTVL
B13: ADI-41238 (antibody, V domains shown)
VH: EVQLLESGGGLVKPGGSLRLSCAASGFTFRDYYMSWIRQAPGKGLEWVSYISSSSSYTEYADSVKGRFTISRDNAKKSLYLQMNSLRTEDTAVYYCARVITQAGTGTTYYMDVWGKGTTVTVSS
VL: QSVLTQPPSVSGAPGQRVTISCTGSSSNIGTGYDVHWYQQLPGTAPKLLIYANNNRPSGVPDRFSGSKSGTSASLAITGLQAEDEADYYCQSYDSSLSLVFGGGTKLTVL
B14: ADI-41254 (antibody, V domains shown)
VH: EVQLVESGGGLVQSGGSLRLSCAASGFTFSSYEMNWVRQAPGKGLEWVSYTTNNGRTIYYADSVKGRFTISRDNAKNSLFLQMNGLRAEDTAVYYCARGIQFSRVDYAMDVWGQGTTVTVSS
VL: SYELTQPPSVSGTPGQRITISCSGSSSNIASNTVNWYQHLPGTAPKLLIYSDNQRPSGVPDRFSGSKSGTSASLAISGLQSEDEADYYCAIWDDSLNASYVFGTGTKLTVL
B15: ADI-41268 (antibody, V domains shown)
VH: EVQLVESGGGLVKPGGSLRLSCVASGFGFTSYSMNWVRQAPGKGLEWVSSISASSTYIHYADSVKGRFTISRDNARNSLYLQMISLRADDTAVYYCSRDGPTYGSGVHVWGQGTMVTVSS
VL: QSALIQPVSVSGSPGQSITISCTGTRSDVGGYNYVSWYQQHPGKAPKLMIYEVRNRPSGVSDRFSGSKSGNTASLTISGLQAEDEGDYYCSSYTSSDTLFYVFGSGTKLTVL
B16: ADI-41322 (antibody, V domains shown)
VH: QVQLVQSGAEVKKPGSSVRVSCKASGGSFSSYATSWVRQAPGQGLEWMGGIIPMYDAVNYAQKFQGRVTITADESTTTAYMELSSLRSEDTAVYYCARSSGYTGTNFFDYWGQGTLVTVSS
VL: DIQMTQSPSSVSASVGDRVTITCRASQDISSWLAWYQQKPGKAPKLLIYTASSLQSGVPSRFSGSGSGTDFTLTISRLQPEDFATYYCQQANSFPRVTFGGGTKVEIK
B17: ADI-41253 (antibody, V domains shown)
VH: EVQLVQSGPGLVKPSETLSLTCTVSGDSISSSDYSYYWGWIRQPPGKGLEWIASLSYSGKTYSQSSLKSRVIISVDTSKKQFSLKLSSVTAADTAVYYCAVTRCYVCTSEGDSFDMWGQGTMVTVSS
VL: DIVLTQTPGTLSLSPGERATLSCRASQSISGNYLAWYQHKPGQAPRLLIYGASTRATGIPDRFSGSGSGTDFPLTISRLEPEDFAVYYCQQYATSPYTFGQGTKVDIK
B18: ADI-41246 (antibody, V domains shown)
VH: EVQLLESGPGLVKPSETLSLTCIVSGGSISSYNWNWIRQPPGKGLEWIGYIYNSGSTNYNPSLKSRVTISVDTSKNQFSLKLSSVTAADTAVYYCARYFDYGSGGFDYWGQGTLVTVSS
VL: ETTLTQSPGTLSLSPGERATLSCRASQSVTSTYLAWYQQKPGQAPRLLIYGASSRATGIPDRFSGSGSGTDFTLTISRLEPEDFAVYYCQQFDSSLTFGGGTKVEIK
B19: ADI-41266 (antibody, V domains shown)
VH: QVQLQQSGPGLVKPSQTLSLTCAISGDSVSSNSAAWNWIRQSPSRGLEWLGRTYYRSKWYNDYAVSVKSRITINPDTSKNQFSLQLNSVTPEDTAVYYCARDLPQVDYFDGASFYFFDFWGQGTLVTVSS
VL: QPVLTQPPSVSVAPGQTASITCGGNIIGNKGVHWYQQKPGRAPVLVVYDDSDRPSGIPERFSGSNSGNTATLTISRVEAADEADYYCQVWDTGSHPVVFGGGTKVTVL
B20: ADI-41251 (antibody, V domains shown)
VH: EVQLVESGGGLVKPGGSLRLSCAASGFTFSDYYMTWIRQAPGKGLEWVSNISGGSSYTNYADSVKGRFTISRDNAKNSVYLQMNSLRAEDTAVYYCARVGCSGGVCNFFLDYWGQGTLVTVSS
VL: B8 VL with R16Q, F51Y, A52D, S54T, S100Y, G104T
B21: ADI-41237 (antibody, V domains shown)
VH: EVQLVESGGGLVKPGGSLRLSCAASGFTFSDYYMNWIRQAPGKGLEWVSDISPSSSYTNYADSVKGRFTISRDNAKNSLYLQMNSLRAEDTAMYYCARRGSCTGGVCSFDYWGQGTLVTVSS
VL: B8 VL with S2P, V3G, R16Q, H36N, F51Y, A52D, Y88F, S100F, G104T
B22: ADI-41245 (antibody, V domains shown)
VH: QVQLVESGGGLVKPGGSLRLSCAASGFSFSAYYMSWIRQAPGKGLEWISNISGGSSYANYADSVEGRFTISRDNAKNSLYLQMNSLRAEDTAVYYCAREFQTYYYMDVWGKGTTVTVSS
VL: B8 VL with S2P, R16Q, D34E, F51Y, A52G, S54N, V108L

Target: RSV prefusion F (preF), DS-Cav1 (Respiratory Syncytial Virus)
Assay: BLI, IgG on anti-human IgG sensor, 100 nM antigen

**Q.** With B1 as the binder, how does the Kd read?
**A.** 0.728 nM

Target: Respiratory Syncytial Virus fusion glycoprotein (RSV F) on RSV-A2 virus (Respiratory Syncytial Virus subtype A (RSV-A2))
Assay: cell-based or functional assay

**Q.** For B1, which Neutralization IC50 (RSV subtype A) is on record?
**A.** 0.01 µg/mL

Target: RSV prefusion F (preF, DS-Cav1) (Respiratory syncytial virus)
Assay: BLI, IgG on sensor, 100 nM antigen

**Q.** For B2, which Kd is on record?
**A.** 3.81 nM

**Q.** How did the Kd turn out when B3 was run?
**A.** 0.512 nM

**Q.** For B4, which Kd is on record?
**A.** 0.968 nM

**Q.** Which Kd does the source give for B5 here?
**A.** 8.99 nM

**Q.** With B6 as the binder, how does the Kd read?
**A.** 6.25 nM

**Q.** Which Kd does the source give for B7 here?
**A.** 48.2 nM

**Q.** For B8, which Kd is on record?
**A.** 0.721 nM

**Q.** How did the Kd turn out when B9 was run?
**A.** 3.35 nM

**Q.** B10 was tested. Which Kd did it give?
**A.** 3.32 nM

**Q.** How did the Kd turn out when B11 was run?
**A.** 3.2 nM

**Q.** For B12, which Kd is on record?
**A.** 3.51 nM

**Q.** How did the Kd turn out when B13 was run?
**A.** 1.03 nM

**Q.** For B14, which Kd is on record?
**A.** 0.776 nM

**Q.** With B15 as the binder, how does the Kd read?
**A.** 0.581 nM

**Q.** How did the Kd turn out when B16 was run?
**A.** 2.98 nM

**Q.** For B17, which Kd is on record?
**A.** 1.11 nM

**Q.** For B18, which Kd is on record?
**A.** 3.08 nM

**Q.** With B19 as the binder, how does the Kd read?
**A.** 4.06 nM

**Q.** How did the Kd turn out when B20 was run?
**A.** 0.593 nM

**Q.** Which Kd does the source give for B21 here?
**A.** 0.794 nM

**Q.** For B22, which Kd is on record?
**A.** 0.775 nM
